What was measured:
[1] = test system: HGF-G1 precursor protein (HGF-NG with Leu488-Arg489 at the C-terminus of the α chain converted into His-Tyr)
[2] = test system: HGF-G2 precursor protein (HGF-NG with Arg489-Val490 converted into Tyr-His)
[3] = test system: HGF-G3 precursor protein (HGF-NG with Lys-Thr-Lys-Gln-Leu-Arg at 484-489 converted into Pro-Gly-Ala-Ala-His-Tyr)
[4] = test system: HGF-NG precursor protein (5-amino-acid-deleted-type/glycosylation-deficient human HGF with the natural α chain-β chain boundary sequence Arg489-Val490)
HGF-NG precursor protein (5-amino-acid-deleted-type/glycosylation-deficient human HGF with the natural α chain-β chain boundary sequence Arg489-Val490), sequence (chain, as listed by the source, stated change not applied): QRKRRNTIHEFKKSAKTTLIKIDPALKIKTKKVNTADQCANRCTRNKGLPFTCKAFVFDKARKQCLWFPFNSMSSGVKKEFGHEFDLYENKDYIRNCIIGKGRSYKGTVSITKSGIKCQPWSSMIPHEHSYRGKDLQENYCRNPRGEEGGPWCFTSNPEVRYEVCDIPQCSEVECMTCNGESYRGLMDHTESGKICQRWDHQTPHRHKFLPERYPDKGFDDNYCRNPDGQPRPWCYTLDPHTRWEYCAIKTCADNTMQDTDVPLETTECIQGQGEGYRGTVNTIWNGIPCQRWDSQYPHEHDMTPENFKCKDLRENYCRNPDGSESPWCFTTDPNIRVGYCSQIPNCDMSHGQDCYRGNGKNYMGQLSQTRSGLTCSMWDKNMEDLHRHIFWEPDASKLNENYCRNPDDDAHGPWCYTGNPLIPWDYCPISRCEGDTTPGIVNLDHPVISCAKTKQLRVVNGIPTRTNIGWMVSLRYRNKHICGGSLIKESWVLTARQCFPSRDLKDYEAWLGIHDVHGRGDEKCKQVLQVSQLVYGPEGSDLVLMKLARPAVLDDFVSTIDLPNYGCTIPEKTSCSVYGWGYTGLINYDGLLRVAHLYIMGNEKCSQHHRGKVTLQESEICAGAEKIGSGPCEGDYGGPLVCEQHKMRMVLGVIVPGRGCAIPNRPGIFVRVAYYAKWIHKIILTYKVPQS

HGF-G3 precursor protein (HGF-NG with Lys-Thr-Lys-Gln-Leu-Arg at 484-489 converted into Pro-Gly-Ala-Ala-His-Tyr), sequence (chain, as listed by the source): as the sequence (chain, as listed by the source, stated change not applied) above, with K453P, T454G, K455A, Q456A, L457H, R458Y counted along it
HGF-G1 precursor protein (HGF-NG with Leu488-Arg489 at the C-terminus of the α chain converted into His-Tyr), sequence (chain, as listed by the source): as the sequence (chain, as listed by the source, stated change not applied) above, with L457H, R458Y counted along it
HGF-G2 precursor protein (HGF-NG with Arg489-Val490 converted into Tyr-His), sequence (chain, as listed by the source): as the sequence (chain, as listed by the source, stated change not applied) above, with R458Y, V459H counted along it

Substance: Genenase I (made by New England Laboratory)
- cleavage of the single-stranded precursor into α and β chain bands (western blot, reducing SDS-PAGE) [1]: after Genenase I treatment, bands were detected at the same positions as those of the α chain and β chain of HGF-NG
- cleavage of the single-stranded precursor into α and β chain bands (western blot, reducing SDS-PAGE) [2]: after Genenase I treatment, bands were detected at the same positions as those of the α chain and β chain of HGF-NG
- cleavage of the single-stranded precursor into α and β chain bands (western blot, reducing SDS-PAGE) [3]: after Genenase I treatment, bands were detected at the same positions as those of the α chain and β chain of HGF-NG
- cleavage of the single-stranded precursor (western blot, reducing SDS-PAGE) [4]: HGF-NG precursor protein having a natural α chain-β chain boundary sequence was not cleaved by Genenase I

Reference: patent US20110269944
